Data from article PMC8225110, “The Divergent Key Residues of Two Agrobacterium fabrum (tumefaciens) CheY Paralogs Play a Key Role in Distinguishing Their Functions” (Microorganisms, 2021).

Biological target: T1, GST-FliM fusion protein (Agrobacterium fabrum C58, UniProt Q44457 1-321)
T1 construct: Flagellar motor switch protein FliM (atu0561) of Agrobacterium fabrum C58; Cloned in pGEX-4T-1; not shown: GST, N-terminal, kept
T1 sequence (looked up): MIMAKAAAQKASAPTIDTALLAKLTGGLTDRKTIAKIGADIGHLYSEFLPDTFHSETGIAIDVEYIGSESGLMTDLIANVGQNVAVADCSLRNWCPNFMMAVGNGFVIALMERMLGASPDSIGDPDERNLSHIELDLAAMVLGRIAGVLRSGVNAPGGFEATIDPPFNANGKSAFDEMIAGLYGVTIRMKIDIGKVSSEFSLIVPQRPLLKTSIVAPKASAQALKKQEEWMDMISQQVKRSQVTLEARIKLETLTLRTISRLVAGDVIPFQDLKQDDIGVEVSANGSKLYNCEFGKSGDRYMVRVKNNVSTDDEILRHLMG
Experiment: pull-down; GST-FliM on glutathione-Sepharose 4B beads, crude extract of CheY-6×his in PBS with MgCl2 and acetyl phosphate (phosphorylating conditions), 4 °C, 1 h; Western blot with anti-6×his antibody
Settings: one partner purified

B1: CheY2-6×his fusion protein, phosphorylated with acetyl phosphate (natural protein, Agrobacterium fabrum C58, UniProt Q7D1A5 1-129, looked up)
chain: MSLAEKIKVLIVDDQVTSRLLLSDALTQLGFKQITSAGDGEQGLKIMEQQPHHLVISDFNMPKMDGLGFLHAVRANPTTKKAAFIILTAQGDRALVQKAAQLGANNVLAKPFTIDKMRAAIEAVFGSLK
modifications: phosphorylated by acetyl phosphate (residue not given)
notes: Chemotaxis response regulator CheY2 (atu0520) of Agrobacterium fabrum C58; Same construct as m11; the extent of phosphorylation was not measured; also called CheY2-P; source: E. coli BL21 (DE3), crude extract, with acetyl phosphate (phosphorylating conditions); not shown: His6, C-terminal, kept
- fold band intensity pulled down, against CheY1-6×his: ~5 fold
